From US20220332804A1 (CSL INNOVATION, published 2022)
Numbering of substitutions follows the chain as printed.

Experiments:
Test in all cases: SPR, mAb captured, C2 mutant analyte;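 further: Anti-C2 mAbs captured on goat anti-human IgG Biacore CM5 chips, alanine or serine C2 surface mutants flowed over at 37 °C, double-referenced sensorgrams fitted to a 1:1 binding model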
[1] = target: T1, human C2 L279A (human, UniProt P06681 21-752)
T1 sequence: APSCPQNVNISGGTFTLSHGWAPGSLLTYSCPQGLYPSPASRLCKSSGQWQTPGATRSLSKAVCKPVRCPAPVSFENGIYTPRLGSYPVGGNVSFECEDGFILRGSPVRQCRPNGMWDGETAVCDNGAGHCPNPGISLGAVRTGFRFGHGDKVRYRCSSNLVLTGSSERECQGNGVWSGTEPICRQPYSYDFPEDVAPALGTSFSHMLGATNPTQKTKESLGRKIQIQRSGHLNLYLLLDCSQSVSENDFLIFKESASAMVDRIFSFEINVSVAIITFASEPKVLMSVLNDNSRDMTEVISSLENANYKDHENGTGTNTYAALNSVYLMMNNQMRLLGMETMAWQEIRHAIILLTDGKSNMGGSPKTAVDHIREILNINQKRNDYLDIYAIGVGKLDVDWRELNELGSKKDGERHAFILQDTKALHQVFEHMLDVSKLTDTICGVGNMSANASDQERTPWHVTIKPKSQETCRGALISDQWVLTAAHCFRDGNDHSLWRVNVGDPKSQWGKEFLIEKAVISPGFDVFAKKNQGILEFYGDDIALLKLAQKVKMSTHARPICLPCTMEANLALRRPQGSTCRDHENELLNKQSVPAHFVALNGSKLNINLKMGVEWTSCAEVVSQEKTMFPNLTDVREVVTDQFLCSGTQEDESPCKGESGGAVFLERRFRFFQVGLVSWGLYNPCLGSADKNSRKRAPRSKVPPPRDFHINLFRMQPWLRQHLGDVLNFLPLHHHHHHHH

[2] = target: T2, human C2 I438A (human, UniProt P06681 21-752)
T2 sequence: T1 sequence with A259L, I418A

[3] = target: T3, human C2 E686A (human, UniProt P06681 21-752)
T3 sequence: T1 sequence with A259L, E666A

[4] = target: T4, human C2 D431A (human, UniProt P06681 21-752)
T4 sequence: T1 sequence with A259L, D411A

Kd [1]: 240 nM
Kd [2]: 30.6 nM
Kd [3]: 139 nM
Kd [4]: 71.8 nM
B1: RF16-214 (antibody, V domains shown)
VH: EVQLLESGGGLVQPGGSLRLSCAASGFTFSWYQMMWVRQAPGKGLEWVSRIYPSGGGTAYADSVKGRFTISRDNSKNTLYLQMNSLRAEDTAVYYCARDAGYGDNWGQGTLVTVSS
VL: QSALTQPPSVSVSPGQTASITCSGDKLGEKYASWYQQKAGQSPVMVIYQDRKRPSGIPERFSGSNSGNTATLTISGTQAMDEADYYCQAWDTRAVVFGGGTKLTVLG
